Sequences and labels used below:
T1: His.Tag AcNPV DBP (Autographa californica nuclear polyhedrosis virus, UniProt P41430)
T1 construct: made in house; host or cells: E. coli BL21 (DE3)
T1 sequence (P41430 whole entry, looked up): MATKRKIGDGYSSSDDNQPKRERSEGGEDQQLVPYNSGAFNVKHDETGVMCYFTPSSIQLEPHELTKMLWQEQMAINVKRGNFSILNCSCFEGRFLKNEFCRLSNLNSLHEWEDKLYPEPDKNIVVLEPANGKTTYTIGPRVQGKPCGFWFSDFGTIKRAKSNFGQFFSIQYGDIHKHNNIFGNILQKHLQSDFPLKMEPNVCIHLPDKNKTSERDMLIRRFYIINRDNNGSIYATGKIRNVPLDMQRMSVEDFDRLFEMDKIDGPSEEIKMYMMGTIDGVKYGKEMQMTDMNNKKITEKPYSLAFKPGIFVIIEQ

No end group written: not given here.

In one assay the target is T1, His.Tag AcNPV DBP. The assay can be described thus: ELISA for His.Tag AcNPV DBP screening using the FliTrx protein solution. The assay is classed as binding, Autographa californica nucleopolyhedrovirus (AcNPV). To be noted: wells coated with FliTrx protein solution of positive clones; 6 μg His.Tag AcNPV DBP added; mean of duplicate; mean O.D. of negative controls 0.14. The procedure: (§1) ELISA Protocols for His.Tag AcNPV DBP Screening
(§2) ELISA procedure was used for analysis of His.Tag AcNPV DBP as a target. The polystyrene microtitration plates (PolySorp™ Surface, Immuno™ Plate, Nunc) were used as the solid phase for the assay. All washes were performed four times with phosphate-buffered saline (PBS) containing 0.05% (V/V) Tween® 20 (PBS-T). The substrate solution for alkaline phosphatase (p-nitrophenyl phosphate, pNPP, 1 mg/ml, in 0.2 M Tris-HCl buffer, pH 7) was from Sigma, St. Louis, Mo. The reaction was stopped by the addition of 3 M NaOH (50 μl per well). The optical density at 405 nm (O.D.λ=405 nm) was measured in a microplate colorimeter (Molecular Devices, Thermo max Microplate Reader).
1. Using the FliTrx™ Protein Solution
Wells of the microtitration plates were coated with the FliTrx™ protein solutions obtained from induced culture cell of positive clones that contain the peptides recognized by His.Tag AcNPV DBP (50 μl per well). To account for plate binders, empty plates were used as negative controls. After incubation overnight at +4° C., the plates were washed, and the uncoated attachment sites on the plates were saturated by incubation for 1 hour at 37° C. with a solution of 2% nonfat dry milk in PBS-T: PBS-T-M (200 μl per well). The plates were then washed, and an aliquot of 100 μl (6 μg) of the purified His.Tag AcNPV DBP was added to both the target plate and the control plate. Plates were incubated for. 1 hour at 37° C. The plates were then washed, and 100 μl of a 1:1,000 dilution of mouse monoclonal Ig G1 antibody to penta-His™ (QIAGEN, Valencia, Calif.) in PBS-T-M were added. After being incubated again for 1 hour at 37° C., the plates were washed, and 100 μl of a 1:1,000 dilution of goat anti-mouse IgG conjugated to alkaline phosphatase (Bio-Rad Laboratories, Hercules, Calif.) were added. After being incubated again for 1 hour at 37° C., the plates were washed, and substrate solution (200 [l per well) was added. After incubation for 1 hour at 37° C., the reaction was stopped.
(In general: An ELISA detects its analyte on a solid surface through an enzyme-linked reagent.)
Regarding “ADYGKGLRRAMG (baculovirus) [Peptide ligand No. 3, FliTrx selected dodecapeptide ligand recognized by His.Tag AcNPV DBP]”, the “ELISA (O.D. λ = 405 nm), affinity for His.Tag AcNPV DBP” value (“ELISA (O.D. λ = 405 nm), affinity” below) came out at 1.11.

As for “AGRKGERGSVLQ (baculovirus) [Peptide ligand No. 1, FliTrx selected dodecapeptide ligand recognized by His.Tag AcNPV DBP]”, the “ELISA (O.D. λ = 405 nm), affinity” value came out at 1.21.

“AMLRAACVVRSM (baculovirus) [Peptide ligand No. 2, FliTrx selected dodecapeptide ligand recognized by His.Tag AcNPV DBP]”: the “ELISA (O.D. λ = 405 nm), affinity” value is recorded as 0.56.

With “GGGGRRSGGACP (baculovirus) [Peptide ligand No. 4, FliTrx selected dodecapeptide ligand recognized by His.Tag AcNPV DBP]”, the “ELISA (O.D. λ = 405 nm), affinity” value is listed as 1.13.

Consider “PAQAQTRRRRPR (baculovirus) [Peptide ligand No. 5, FliTrx selected dodecapeptide ligand recognized by His.Tag AcNPV DBP]”, for which the “ELISA (O.D. λ = 405 nm), affinity” value is listed as 1.35.

The target in the next assay is T1, His.Tag AcNPV DBP. The assay can be described thus: ELISA for His.Tag AcNPV DBP screening using the biotinylated synthesized peptide ligand. Type of assay: binding, Autographa californica nucleopolyhedrovirus (AcNPV). The settings on record: wells coated with 2 μg His.Tag AcNPV DBP; 25 μg biotinylated peptide added; negative control (empty) plate gave 0.30. The procedure:
as §1, §2
2. Using the Biotinylated Synthesized Peptide Ligand
Wells of the microtitration plates were coated with 50 μl (2 μg) of purified His.Tag AcNPV DBP. To account for plate binders, empty plates were used as negative controls. After incubation overnight at +4° C., the plates were washed, and the uncoated attachment sites on the plates were saturated by incubation for 1 hour at 37° C. with PBS-T-M (200 μl per well). The plates were then washed, and an aliquot of 100 μl (25 μg) of the biotinylated synthesized peptide ligand No. 4 (SEQ ID NO. 6) (Invitrogen, Carlsbad, Calif.) was added to both the target plate and the control plate. Plates were incubated for 1 hour at 37° C. […]
“biotinylated synthesized peptide ligand No. 4: biotinylated synthesized peptide ligand No. 4 (SEQ ID NO. 6), GGGGRRSGGACP (also: biotinylated)”: the “mean O.D. value, target plate” value is on record as “about 4.0”.

The next assay deals with recombinant His.Tag AcNPV DBP (Autographa californica nucleopolyhedrovirus DNA-binding protein) (Autographa californica nucleopolyhedrovirus (AcNPV)). The experiment in a line: ELISA: 2 ug His.Tag AcNPV DBP coated, 25 ug biotinylated peptide added, detected with anti-biotin BN-34-AP; empty negative control plate 0.30.
Details: not given
In the case of GGGGRRSGGACP (also: biotinylated, position not given here) [biotinylated synthesized peptide ligand No. 4 (SEQ ID NO. 6)], the mean O.D. (405 nm) was determined as 4 O.D.

Another assay has the same target. The assay can be described thus: ELISA: FliTrx protein solution coated, 6 ug His.Tag AcNPV DBP added, detected with anti-penta-His and goat anti-mouse IgG-AP; mean of duplicate; negative controls (empty plates) 0.14.
Details: not given
In the case of ADYGKGLRRAMG (peptide, part only; not given: FliTrx scaffold, part only, also: inserted in thioredoxin active-site loop of FliTrx fusion protein) [FliTrx selected peptide ligand No. 3 (…), as FliTrx protein solution], the ELISA (O.D. λ = 405 nm) (O.D. λ = 405 nm) was 1.11.

In the case of PAQAQTRRRRPR (peptide, part only; not given: FliTrx scaffold, part only, also: inserted in thioredoxin active-site loop of FliTrx fusion protein) [FliTrx selected peptide ligand No. 5 (…), as FliTrx protein solution], the ELISA (O.D. λ = 405 nm) (O.D. λ = 405 nm) came out at 1.35.

As for AGRKGERGSVLQ (peptide, part only; not given: FliTrx scaffold, part only, also: inserted in thioredoxin active-site loop of FliTrx fusion protein) [FliTrx selected peptide ligand No. 1 (…), as FliTrx protein solution], the ELISA (O.D. λ = 405 nm) (O.D. λ = 405 nm) stood at 1.21.

On to GGGGRRSGGACP (peptide, part only; not given: FliTrx scaffold, part only, also: inserted in thioredoxin active-site loop of FliTrx fusion protein) [FliTrx selected peptide ligand No. 4 (…), as FliTrx protein solution], for which the ELISA (O.D. λ = 405 nm) (O.D. λ = 405 nm) is 1.13.

With AMLRAACVVRSM (peptide, part only; not given: FliTrx scaffold, part only, also: inserted in thioredoxin active-site loop of FliTrx fusion protein) [FliTrx selected peptide ligand No. 2 (…), as FliTrx protein solution], the ELISA (O.D. λ = 405 nm) (O.D. λ = 405 nm) turned out to be 0.56.

Values taken from patent US20060063917A1, “Selection of peptide ligands specific for baculovirus DNA-binding protein from the FliTrxTM random peptide display library” (Vista Biologicals Corporation, priority 2004, published 2006).
